{"source": "paper doi:10.1101/2022.09.08.507146", "about": "“Cytomotive actins and tubulins share a polymerisation switch mechanism conferring robust dynamics” (bioRxiv, 2022)", "proteins": {"B1": {"name": "Prosthecobacter dejongeii BtubA*B heterodimer (BtubA* R284G, R286D, F287G with BtubB) (complex)", "chain 1": "MKVNNTIVVSIGQAGNQIAASFWKTVCLEHGIDPLTGQTAPGVAPRGNWSSFFSKLGESSSGSYVPRAIMVDLEPSVIDNVKATSGSLFNPANLISRTEGAGGNFAVGYLGAGREVLPEVMSRLDYEIDKCDNVGGIIVLHAIGGGTGSGFGALLIESLKEKYGEIPVLSCAVLPSPQVSSVVTEPYNTVFALNTLRRSADACLIFDNEALFDLAHRKWNIESPTVDDLNLLITEALAGITASMRFSGFLTVEISLRELLTNLVPQPSLHFLMCAFAPLTPPDGSDGEELGIEEMIKSLFDNGSVFAACSPMEGRFLSTAVLYRGIMEDKPLADAALAAMREKLPLTYWIPTAFKIGYVEQPGISHRKSMVLLANNTEIARVLDRICHNFDKLWQRKAFANWYLNEGMSEEQINVLRASAQELVQSYQVAEESGAKAKVQDSAGDTGMRAAAAGVSDDARGSMSLRDLVDRRR", "chain 2": "MREILSIHVGQCGNQIADSFWRLALREHGLTEAGTLKEGSNAAANSNMEVFFHKVRDGKYVPRAVLVDLEPGVIARIEGGDMSQLFDESSIVRKIPGAANNWARGYNVEGEKVIDQIMNVIDSAVEKTKGLQGFLMTHSIGGGSGSGLGSLILERLRQAYPKKRIFTFSVVPSPLISDSAVEPYNAILTLQRILDNADGAVLLDNEALFRIAKAKLNRSPNYMDLNNIIALIVSSVTASLRFPGKLNTDLSEFVTNLVPFPGNHFLTASFAPMRGAGQEGQVRTNFPDLARETFAQDNFTAAIDWQQGVYLAASALFRGDVKAKDVDENMATIRKSLNYASYMPASGGLKLGYAETAPEGFASSGLALVNHTGIAAVFERLIAQFDIMFDNHAYTHWYENAGVSRDMMAKARNQIATLAQSYRDAS", "notes": "BtubA*, as m5; BtubB, as m6; The heterodimer as the unit that polymerises into single protofilaments; also called BtubA*B M-loop mutant; mutant BtubAB; source: E. coli C41(DE3), co-expressed and co-purified (HiTrap Q XL, Sephacryl S300, Mono Q)"}}, "molecular_target": "the molecule itself", "experiment": "cryo-EM structure; BtubA*B single protofilaments, 0.21 mg/mL in HMK100 pH 7.7 with 0.5 mM GMPCPP, 45 s at 20 °C", "data": [{"protein": "B1", "values": [{"measurement": "binding result", "result": "binds"}]}]}
